Experimental findings from publication PMC4409664 (Cell, 2015) are described below.

The target in this experiment is wild-type human serum retinol binding protein with an N-terminal hemagglutinin tag (RBP^HA WT) (human, UniProt P02753 19-201). In words: ELISA.

B1: STRA6 (stimulated by retinoic acid 6) membrane receptor with a myc tag (STRA6^myc) (receptor, UniProt Q9BX79 1-667, looked up)
chain: MSSQPAGNQTSPGATEDYSYGSWYIDEPQGGEELQPEGEVPSCHTSIPPGLYHACLASLSILVLLLLAMLVRRRQLWPDCVRGRPGLPSPVDFLAGDRPRAVPAAVFMVLLSSLCLLLPDEDALPFLTLASAPSQDGKTEAPRGAWKILGLFYYAALYYPLAACATAGHTAAHLLGSTLSWAHLGVQVWQRAECPQVPKIYKYYSLLASLPLLLGLGFLSLWYPVQLVRSFSRRTGAGSKGLQSSYSEEYLRNLLCRKKLGSSYHTSKHGFLSWARVCLRHCIYTPQPGFHLPLKLVLSATLTGTAIYQVALLLLVGVVPTIQKVRAGVTTDVSYLLAGFGIVLSEDKQEVVELVKHHLWALEVCYISALVLSCLLTFLVLMRSLVTHRTNLRALHRGAALDLSPLHRSPHPSRQAIFCWMSFSAYQTAFICLGLLVQQIIFFLGTTALAFLVLMPVLHGRNLLLFRSLESSWPFWLTLALAVILQNMAAHWVFLETHDGHPQLTNRRVLYAATFLLFPLNVLVGAMVATWRVLLSALYNAIHLGQMDLSLLPPRAATLDPGYYTYRNFLKIEVSQSHPAMTAFCSLLLQAQSLLPRTMAAPQDSLRPGEEDEGMQLLQTKDSMAKGARPGASRGRARWGLAYTLLHNPTLQVFRKTALLGANGAQP
As to B1, the Kd was determined as 59 nM.
